For one substance, absorbance (Anti-IgGk-HRP) against PS modified with the PrG alone results are on record in publication PMC6362288.

This assay addresses protein G (UniProt P19909). Nature of the assay: ELISA; polystyrene wells modified with the PrG-Gra complex (PrG adsorbed on graphene, 2:1); mAb 5, 10, 15 µg/ml; unreacted mAb in the supernatant by Bradford, bound mAb by Anti-IgGk-HRP at 450 nm. (In general: ELISA stands for enzyme-linked immunosorbent assay.)

mouse monoclonal IgG2b (mAb) (antibody) yielded an absorbance (Anti-IgGk-HRP) against PS modified with the PrG alone of 2 fold.
